# Assay: Zeta Potential (surface charge) by electrophoretic mobility / PCS, PSS NICOMP 380 DLS/ZLS
# Type: physicochemical
# Details: FIG. 5; pH 7
# Experimental: The surface charge (also referred to as Zeta potential) of the nanoparticles was determined by measuring their electrophoretic mobility using a PSS NICOMP™ 380 DLS/ZLS. Measurements were made at particle concentrations of 6 to 15 mg/ml, temperatures between room temperature to 50° C., and applying an external voltage of 5 Volts.
# The surface charge (also referred to as Zeta potential or ζ-potential) may be measured using Zeta Sizer as e.g. PSS NICOMP™ 380 DLS/ZLS. Zeta Charge, or Net Surface Charge of a molecule or a particle is measured by PCS in the presence of an applied electrical field.
substance,measurement,value
human serum albumin [cleaned and stabilized albumin molecules],"global surface charge, PCS based measurement of the Zeta Potential",about −5 mV
